Measurements: the supplement of paper PMC9112550, “Optimization of the antimicrobial peptide Bac7 by deep mutational scanning” (BMC Biology, 2022)

What follows are sequences tested on Escherichia coli TOP10 (assay: shrunken log2 fold change of peptide-encoding DNA abundance (4.5 h post-induction vs induction); higher = less antimicrobial activity (less host growth inhibition)). Details: time post-induction: 4.5 h; library: site-saturation at positions 5, 18, 19, 20.
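Further: peptides expressed intracellularly from a pBAD plasmid library in pooled LB shake-flask culture, induced with 0.3% L-arabinose, DNA abundance read by NGS, three biological replicates, DESeq2 with apeglm shrinkage.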

RRIRGRPPRLPRPRPRPFKPPRP and RRIRMRPPRLPRPRPRPTVYPRP are within 0.2 log units of each other in “shrunken log2 fold change” value: -0.0354 for the first, -0.0666 for the second.

RRIRIRPPRLPRPRPRPAAQPRP and RRIRVRPPRLPRPRPRPMHCPRP are within 0.2 log units of each other in “shrunken log2 fold change” value: 0.14 for the first, -0.00923 for the second.

First: RRIRCRPPRLPRPRPRPLVFPRP
Second: RRIRRRPPRLPRPRPRPWIKPRP
The “shrunken log2 fold change” value of the first is lower: -0.317 for the first, 0.0892 for the second.

First: RRIRERPPRLPRPRPRPFIIPRP
Second: RRIRIRPPRLPRPRPRPHHYPRP
The “shrunken log2 fold change” value of the first is lower: -0.769 for the first, -0.429 for the second.

RRIRLRPPRLPRPRPRPCPGPRP and RRIRCRPPRLPRPRPRPEYWPRP are within 0.2 log units of each other in “shrunken log2 fold change” value: -0.219 for the first, -0.0559 for the second.

Going from RRIRDRPPRLPRPRPRPPCCPRP to RRIRGRPPRLPRPRPRPCSCPRP, the “shrunken log2 fold change” value rises from -0.124 to 0.105.

Going from RRIRPRPPRLPRPRPRPFVYPRP to RRIRSRPPRLPRPRPRPNNWPRP, the “shrunken log2 fold change” value rises from -0.706 to -0.0732.

Compared with RRIRGRPPRLPRPRPRPCHQPRP, RRIRGRPPRLPRPRPRPFRSPRP is lower in “shrunken log2 fold change” value: -0.0488 for the first, -0.599 for the second.

Compared with RRIRARPPRLPRPRPRPAEWPRP, RRIRTRPPRLPRPRPRPYTTPRP is lower in “shrunken log2 fold change” value: 0.245 for the first, -0.718 for the second.

RRIRSRPPRLPRPRPRPMATPRP and RRIRIRPPRLPRPRPRPRTQPRP are within 0.2 log units of each other in “shrunken log2 fold change” value: 0.0201 for the first, 0.106 for the second.

First: RRIRERPPRLPRPRPRPDFGPRP
Second: RRIRVRPPRLPRPRPRPDHNPRP
The “shrunken log2 fold change” value of the first is higher: -0.0271 for the first, -0.488 for the second.

First: RRIRVRPPRLPRPRPRPNRIPRP
Second: RRIRCRPPRLPRPRPRPPFWPRP
The “shrunken log2 fold change” value of the first is lower: -0.0663 for the first, 0.649 for the second.

RRIRERPPRLPRPRPRPYLLPRP and RRIRYRPPRLPRPRPRPETMPRP are within 0.2 log units of each other in “shrunken log2 fold change” value: -0.165 for the first, -0.062 for the second.

RRIRQRPPRLPRPRPRPAQCPRP and RRIRSRPPRLPRPRPRPRVIPRP are within 0.2 log units of each other in “shrunken log2 fold change” value: -0.017 for the first, 0.017 for the second.

Compared with RRIRLRPPRLPRPRPRPPSPPRP, RRIRPRPPRLPRPRPRPEFMPRP is lower in “shrunken log2 fold change” value: 0.58 for the first, 0.0793 for the second.

RRIRFRPPRLPRPRPRPFAVPRP and RRIRARPPRLPRPRPRPIKLPRP are within 0.2 log units of each other in “shrunken log2 fold change” value: -0.354 for the first, -0.16 for the second.

RRIRSRPPRLPRPRPRPFCEPRP and RRIRDRPPRLPRPRPRPLTTPRP are within 0.2 log units of each other in “shrunken log2 fold change” value: -0.0573 for the first, 0.135 for the second.

Compared with RRIRFRPPRLPRPRPRPWHQPRP, RRIRCRPPRLPRPRPRPTMAPRP is higher in “shrunken log2 fold change” value: -0.338 for the first, -0.0611 for the second.

RRIRHRPPRLPRPRPRPKKWPRP and RRIRDRPPRLPRPRPRPQEEPRP are within 0.2 log units of each other in “shrunken log2 fold change” value: -0.0201 for the first, -0.0321 for the second.

Going from RRIRPRPPRLPRPRPRPSDLPRP to RRIRARPPRLPRPRPRPLKVPRP, the “shrunken log2 fold change” value rises from -0.385 to -0.0599.

RRIRARPPRLPRPRPRPFMAPRP and RRIRVRPPRLPRPRPRPFTSPRP are within 0.2 log units of each other in “shrunken log2 fold change” value: -0.163 for the first, -0.0104 for the second.

RRIRIRPPRLPRPRPRPRPWPRP and RRIRDRPPRLPRPRPRPKWQPRP are within 0.2 log units of each other in “shrunken log2 fold change” value: 0.154 for the first, 0.276 for the second.

RRIRKRPPRLPRPRPRPWVEPRP and RRIRLRPPRLPRPRPRPEGGPRP are within 0.2 log units of each other in “shrunken log2 fold change” value: 0.104 for the first, 0.0449 for the second.

RRIRRRPPRLPRPRPRPGTCPRP and RRIRLRPPRLPRPRPRPWLHPRP are within 0.2 log units of each other in “shrunken log2 fold change” value: -0.087 for the first, -0.0284 for the second.

Compared with RRIRVRPPRLPRPRPRPGSHPRP, RRIRYRPPRLPRPRPRPTYEPRP is higher in “shrunken log2 fold change” value: 0.105 for the first, 4.06 for the second.

First: RRIRDRPPRLPRPRPRPRPGPRP
Second: RRIRLRPPRLPRPRPRPAQIPRP
The “shrunken log2 fold change” value of the first is higher: 1.6 for the first, 0.214 for the second.

Going from RRIRYRPPRLPRPRPRPAQAPRP to RRIRPRPPRLPRPRPRPWFWPRP, the “shrunken log2 fold change” value rises from 0.0486 to 0.281.

RRIRCRPPRLPRPRPRPQCYPRP and RRIRTRPPRLPRPRPRPDRTPRP are within 0.2 log units of each other in “shrunken log2 fold change” value: -0.474 for the first, -0.442 for the second.

Compared with RRIRMRPPRLPRPRPRPEAHPRP, RRIRRRPPRLPRPRPRPNLPPRP is lower in “shrunken log2 fold change” value: 3.52 for the first, 0.0123 for the second.

Going from RRIRCRPPRLPRPRPRPFAHPRP to RRIRPRPPRLPRPRPRPDLEPRP, the “shrunken log2 fold change” value rises from -0.355 to 0.063.

Going from RRIRVRPPRLPRPRPRPHKDPRP to RRIRRRPPRLPRPRPRPCDHPRP, the “shrunken log2 fold change” value rises from -0.36 to 0.0118.

Compared with RRIRKRPPRLPRPRPRPPALPRP, RRIRFRPPRLPRPRPRPDESPRP is lower in “shrunken log2 fold change” value: 0.57 for the first, -0.0167 for the second.

Compared with RRIRPRPPRLPRPRPRPWMSPRP, RRIRGRPPRLPRPRPRPWILPRP is higher in “shrunken log2 fold change” value: -0.166 for the first, 0.112 for the second.

RRIRCRPPRLPRPRPRPMNWPRP and RRIRTRPPRLPRPRPRPVYAPRP are within 0.2 log units of each other in “shrunken log2 fold change” value: -0.217 for the first, -0.249 for the second.

RRIRRRPPRLPRPRPRPSMPPRP and RRIRERPPRLPRPRPRPKDAPRP are within 0.2 log units of each other in “shrunken log2 fold change” value: -0.0915 for the first, -0.222 for the second.

Going from RRIRDRPPRLPRPRPRPQPGPRP to RRIRQRPPRLPRPRPRPHCWPRP, the “shrunken log2 fold change” value falls from 0.237 to -0.0628.

RRIRMRPPRLPRPRPRPHSFPRP and RRIRDRPPRLPRPRPRPHQGPRP are within 0.2 log units of each other in “shrunken log2 fold change” value: 0.0932 for the first, -0.00184 for the second.

RRIRVRPPRLPRPRPRPKWAPRP and RRIRGRPPRLPRPRPRPVNPPRP are within 0.2 log units of each other in “shrunken log2 fold change” value: 0.269 for the first, 0.127 for the second.

First: RRIRERPPRLPRPRPRPNTDPRP
Second: RRIRFRPPRLPRPRPRPAWMPRP
The “shrunken log2 fold change” value of the first is lower: -0.554 for the first, 0.336 for the second.

RRIRKRPPRLPRPRPRPRIMPRP and RRIRPRPPRLPRPRPRPKNDPRP are within 0.2 log units of each other in “shrunken log2 fold change” value: 0.0472 for the first, -0.108 for the second.

Compared with RRIRGRPPRLPRPRPRPCFEPRP, RRIRPRPPRLPRPRPRPYCMPRP is lower in “shrunken log2 fold change” value: 0.629 for the first, -0.505 for the second.

Going from RRIRMRPPRLPRPRPRPWWTPRP to RRIRLRPPRLPRPRPRPQQNPRP, the “shrunken log2 fold change” value falls from 0.0804 to -0.241.

RRIRARPPRLPRPRPRPTSRPRP and RRIRIRPPRLPRPRPRPGLTPRP are within 0.2 log units of each other in “shrunken log2 fold change” value: 0.119 for the first, -0.0421 for the second.

First: RRIRRRPPRLPRPRPRPAFDPRP
Second: RRIRPRPPRLPRPRPRPEKVPRP
The “shrunken log2 fold change” value of the first is higher: 0.522 for the first, -0.127 for the second.

RRIRKRPPRLPRPRPRPCDWPRP and RRIRRRPPRLPRPRPRPHMWPRP are within 0.2 log units of each other in “shrunken log2 fold change” value: -0.0282 for the first, -0.0704 for the second.

RRIRWRPPRLPRPRPRPPDSPRP and RRIRDRPPRLPRPRPRPKHVPRP are within 0.2 log units of each other in “shrunken log2 fold change” value: 0.0564 for the first, 0.139 for the second.

RRIRTRPPRLPRPRPRPYWTPRP and RRIRVRPPRLPRPRPRPYAMPRP are within 0.2 log units of each other in “shrunken log2 fold change” value: 0.0389 for the first, -0.11 for the second.

Compared with RRIRQRPPRLPRPRPRPPHEPRP, RRIRVRPPRLPRPRPRPLKNPRP is lower in “shrunken log2 fold change” value: 0.559 for the first, -0.0569 for the second.

Compared with RRIRLRPPRLPRPRPRPDFFPRP, RRIRCRPPRLPRPRPRPRMCPRP is higher in “shrunken log2 fold change” value: 0.0131 for the first, 0.337 for the second.

RRIRGRPPRLPRPRPRPIQLPRP and RRIRDRPPRLPRPRPRPAMQPRP are within 0.2 log units of each other in “shrunken log2 fold change” value: 0.043 for the first, 0.194 for the second.

First: RRIRVRPPRLPRPRPRPREDPRP
Second: RRIRTRPPRLPRPRPRPRLNPRP
The “shrunken log2 fold change” value of the first is higher: 0.489 for the first, -0.251 for the second.

Compared with RRIRKRPPRLPRPRPRPWMVPRP, RRIRERPPRLPRPRPRPYHGPRP is lower in “shrunken log2 fold change” value: 0.0578 for the first, -0.47 for the second.

RRIRFRPPRLPRPRPRPRYFPRP and RRIRLRPPRLPRPRPRPVLRPRP are within 0.2 log units of each other in “shrunken log2 fold change” value: 0.0373 for the first, -0.113 for the second.

RRIRERPPRLPRPRPRPLLNPRP and RRIRPRPPRLPRPRPRPWNIPRP are within 0.2 log units of each other in “shrunken log2 fold change” value: 0.0481 for the first, -0.00871 for the second.

In the case of RRIRYRPPRLPRPRPRPLVLPRP, the “shrunken log2 fold change” value is reported as -0.206.
